In publication PMC3834070:

T1: FpPG.S120N-N121K-S122D (Fusarium phyllophilum) (UniProt Q07181)
T1 sequence: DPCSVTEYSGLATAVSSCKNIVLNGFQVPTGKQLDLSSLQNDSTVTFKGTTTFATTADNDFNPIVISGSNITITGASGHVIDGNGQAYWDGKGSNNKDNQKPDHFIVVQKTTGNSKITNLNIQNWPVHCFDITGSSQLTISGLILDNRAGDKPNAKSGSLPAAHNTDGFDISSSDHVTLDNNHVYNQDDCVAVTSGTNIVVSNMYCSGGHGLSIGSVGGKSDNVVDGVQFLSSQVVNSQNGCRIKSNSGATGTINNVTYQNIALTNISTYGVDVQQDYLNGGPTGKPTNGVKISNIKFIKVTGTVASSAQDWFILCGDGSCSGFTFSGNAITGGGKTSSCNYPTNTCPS

T2: FpPG.A274T (Fusarium phyllophilum) (UniProt Q07181)
T2 sequence: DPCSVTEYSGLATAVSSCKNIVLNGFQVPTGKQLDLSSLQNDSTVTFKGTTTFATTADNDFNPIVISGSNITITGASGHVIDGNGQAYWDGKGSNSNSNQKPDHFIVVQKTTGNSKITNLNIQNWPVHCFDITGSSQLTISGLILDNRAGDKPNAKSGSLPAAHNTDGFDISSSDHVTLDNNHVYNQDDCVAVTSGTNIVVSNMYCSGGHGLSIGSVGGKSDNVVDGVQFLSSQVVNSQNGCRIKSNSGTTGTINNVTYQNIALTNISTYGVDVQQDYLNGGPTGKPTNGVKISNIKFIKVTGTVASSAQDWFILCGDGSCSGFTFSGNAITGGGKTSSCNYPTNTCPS

T3: polygalacturonase of Fusarium phyllophilum (FpPG) (Fusarium phyllophilum) (UniProt Q07181)
T3 sequence: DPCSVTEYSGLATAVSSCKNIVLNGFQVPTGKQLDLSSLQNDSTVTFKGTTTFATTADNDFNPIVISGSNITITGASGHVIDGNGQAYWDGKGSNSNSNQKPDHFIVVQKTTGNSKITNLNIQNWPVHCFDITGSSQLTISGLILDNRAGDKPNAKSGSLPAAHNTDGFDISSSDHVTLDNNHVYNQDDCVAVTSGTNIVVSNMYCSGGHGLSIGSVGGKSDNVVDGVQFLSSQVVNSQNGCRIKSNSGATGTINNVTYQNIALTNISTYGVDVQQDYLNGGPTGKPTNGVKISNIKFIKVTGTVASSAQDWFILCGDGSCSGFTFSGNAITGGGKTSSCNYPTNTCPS

T4: FpPG.L303E (Fusarium phyllophilum) (UniProt Q07181)
T4 sequence: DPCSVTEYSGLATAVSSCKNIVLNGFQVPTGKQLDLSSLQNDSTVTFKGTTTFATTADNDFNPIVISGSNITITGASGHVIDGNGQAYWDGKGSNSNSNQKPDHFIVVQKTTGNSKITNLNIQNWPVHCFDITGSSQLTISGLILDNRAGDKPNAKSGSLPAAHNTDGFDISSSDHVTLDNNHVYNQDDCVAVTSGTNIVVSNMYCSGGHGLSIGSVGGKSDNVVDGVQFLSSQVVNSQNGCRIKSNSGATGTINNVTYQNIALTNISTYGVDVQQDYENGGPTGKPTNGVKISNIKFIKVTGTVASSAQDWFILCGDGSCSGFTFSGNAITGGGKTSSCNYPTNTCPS

T5: FpPG.K310T (Fusarium phyllophilum) (UniProt Q07181)
T5 sequence: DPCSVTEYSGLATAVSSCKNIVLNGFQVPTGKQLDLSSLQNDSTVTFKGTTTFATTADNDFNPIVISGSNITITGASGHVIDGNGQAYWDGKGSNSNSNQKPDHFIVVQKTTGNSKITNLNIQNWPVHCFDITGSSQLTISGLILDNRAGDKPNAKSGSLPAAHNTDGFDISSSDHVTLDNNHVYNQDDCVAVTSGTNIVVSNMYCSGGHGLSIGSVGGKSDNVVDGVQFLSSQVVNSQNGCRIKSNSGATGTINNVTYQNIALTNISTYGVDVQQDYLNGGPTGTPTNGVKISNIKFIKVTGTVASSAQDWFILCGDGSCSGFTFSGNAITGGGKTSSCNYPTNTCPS

T6: FpPG.S363K (Fusarium phyllophilum) (UniProt Q07181)
T6 sequence: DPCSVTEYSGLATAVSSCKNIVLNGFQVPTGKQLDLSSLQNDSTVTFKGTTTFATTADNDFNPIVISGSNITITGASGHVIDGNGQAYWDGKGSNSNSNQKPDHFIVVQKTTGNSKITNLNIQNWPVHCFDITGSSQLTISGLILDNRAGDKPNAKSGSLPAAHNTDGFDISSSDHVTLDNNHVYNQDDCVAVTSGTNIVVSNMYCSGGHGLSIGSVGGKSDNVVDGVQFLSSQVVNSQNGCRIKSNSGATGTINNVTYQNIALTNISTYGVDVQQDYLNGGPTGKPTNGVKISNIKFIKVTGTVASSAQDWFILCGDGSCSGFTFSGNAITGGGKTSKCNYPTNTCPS


What was measured:
[1] = target: T1, FpPG.S120N-N121K-S122D (Fusarium phyllophilum)
[2] = target: T2, FpPG.A274T (Fusarium phyllophilum)
[3] = target: T3, polygalacturonase of Fusarium phyllophilum (FpPG) (Fusarium phyllophilum)
[4] = target: Polygalacturonase 1 of Colletotrichum lupini (CluPG1) strain SHK78813 (Colletotrichum lupini)
[5] = target: T4, FpPG.L303E (Fusarium phyllophilum)
[6] = target: T5, FpPG.K310T (Fusarium phyllophilum)
[7] = target: T6, FpPG.S363K (Fusarium phyllophilum)

Binder | fold reduction of the efficiency of inhibition by PvPGIP2 against wild type FpPG, agar diffusion assay (Figure 5A) [1] [fold] | fold loss of inhibition by PvPGIP2 against wild type FpPG, agar diffusion assay (Figure 5A) [2] [fold] | amount of PGIP causing 50% inhibition of one agarose diffusion unit of the PG (agar diffusion assay) [3] [pg] | amount of PGIP causing 50% inhibition of one agarose diffusion unit of the PG (agar diffusion assay) [4] [pg] | amount of PGIP causing 50% inhibition of one agarose diffusion unit of the PG (agar diffusion assay) [5] [pg] | amount of PGIP causing 50% inhibition of one agarose diffusion unit of the PG (agar diffusion assay) [6] [pg] | amount of PGIP causing 50% inhibition of one agarose diffusion unit of the PG (agar diffusion assay) [7] [pg] | amount of PGIP causing 50% inhibition of one agarose diffusion unit of the PG (agar diffusion assay); ∞ indicates > 1500 ng [3] [pg] | amount of PGIP causing 50% inhibition of one agarose diffusion unit of the PG (agar diffusion assay); ∞ indicates > 1500 ng [6] [pg] | amount of PGIP causing 50% inhibition of one agarose diffusion unit of the PG (agar diffusion assay); ∞ indicates > 1500 ng [7] [pg]
PG-inhibiting protein 2 of Phaseolus vulgaris pv Pinto (PvPGIP2) (natural protein) ELCNPQDKQALLQIKKDLGNPTTLSSWLPTTDCCNRTWLGVLCDTDTQTYRVNNLDLSGLNLPKPYPIPSSLANLPYLNFLYIGGINNLVGPIPPAIAKLTQLHYLYITHTNVSGAIPDFLSQIKTLVTLDFSYNALSGTLPPSISSLPNLVGITFDGNRISGAIPDSYGSFSKLFTSMTISRNRLTGKIPPTFANLNLAFVDLSRNMLEGDASVLFGSDKNTQKIHLAKNSLAFDLGKVGLSKNLNGLDLRNNRIYGTLPQGLTQLKFLHSLNVSFNNLCGEIPQGGNLQRFDVSAYANNKCLCGSPLPACT | 25 | 150 | 2000 | 2500 | 2000 | 2000 | 2000 |  |  | 
PvPGIP2.Q224K (natural protein) ELCNPQDKQALLQIKKDLGNPTTLSSWLPTTDCCNRTWLGVLCDTDTQTYRVNNLDLSGLNLPKPYPIPSSLANLPYLNFLYIGGINNLVGPIPPAIAKLTQLHYLYITHTNVSGAIPDFLSQIKTLVTLDFSYNALSGTLPPSISSLPNLVGITFDGNRISGAIPDSYGSFSKLFTSMTISRNRLTGKIPPTFANLNLAFVDLSRNMLEGDASVLFGSDKNTKKIHLAKNSLAFDLGKVGLSKNLNGLDLRNNRIYGTLPQGLTQLKFLHSLNVSFNNLCGEIPQGGNLQRFDVSAYANNKCLCGSPLPACT |  |  |  | 2500 | 20000 |  |  | > 1.5e+06 | > 1.5e+06 | > 1.5e+06
PvPGIP2.Q224E (natural protein) ELCNPQDKQALLQIKKDLGNPTTLSSWLPTTDCCNRTWLGVLCDTDTQTYRVNNLDLSGLNLPKPYPIPSSLANLPYLNFLYIGGINNLVGPIPPAIAKLTQLHYLYITHTNVSGAIPDFLSQIKTLVTLDFSYNALSGTLPPSISSLPNLVGITFDGNRISGAIPDSYGSFSKLFTSMTISRNRLTGKIPPTFANLNLAFVDLSRNMLEGDASVLFGSDKNTEKIHLAKNSLAFDLGKVGLSKNLNGLDLRNNRIYGTLPQGLTQLKFLHSLNVSFNNLCGEIPQGGNLQRFDVSAYANNKCLCGSPLPACT |  |  | 2000 | 1100 | 2000 | 2000 | 2000 |  |  | 
